From paper doi:10.1101/733147 (bioRxiv, 2020) come the findings set out here.

For this experiment, the target named is T1, human ACVR2B.Fc fusion protein (human, UniProt Q13705).
T1 sequence: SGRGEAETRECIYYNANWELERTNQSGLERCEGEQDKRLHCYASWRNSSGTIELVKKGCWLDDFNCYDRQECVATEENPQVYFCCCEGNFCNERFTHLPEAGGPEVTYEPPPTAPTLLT
Kind of experiment: SPR. A general note: Surface plasmon resonance follows binding to a sensor surface in real time, without labels.

B1: Activin A (wild type, mature dimer) (ligand)
chain: GLECDGKVNICCKKQFFVSFKDIGWNDWIIAPSGYHANYCEGECPSHIAGTSGSSLSFHSTVINHYRMRGHSPFANLKSCCVPTKLRPMSMLYYDDGQNIIKKDIQNMIVEECGCS
Consider B1, for which the binding result is “binds”.

B2: Activin A.ΔD406 (ligand)
chain: GLECDGKVNICCKKQFFVSFKDIGWNDWIIAPSGYHANYCEGECPSHIAGTSGSSLSFHSTVINHYRMRGHSPFANLKSCCVPTKLRPMSMLYYDGQNIIKKDIQNMIVEECGCS
For the molecule B2, the binding result is on record as “binds”.
